Where a chain is given by its changes, count along the chain named. Names may count otherwise. Each block holds one molecule with its values, some of them ahead of it.
What was measured:
[1] = biological target: DNMT3A^R882H/N879A protein (as used for size-exclusion chromatography) (human); assay: SEC; Superose 6 Increase 10/300 GL, 100 µL of 3 mg/mL protein, 4 °C, 20 mM Hepes pH 7.2, 250 mM NaCl, 5% glycerol, 5 mM DTT; elution volume against molecular weight standards
[2] = biological target: the molecule itself; assay: as above
[3] = biological target: the molecule itself; assay: crystal structure; DNMT3A MTase domain with S-adenosyl-homocysteine; sitting drop vapor diffusion, 0.2-0.4 M potassium sodium tartrate, 4 °C; homotetramer via RD and FF interfaces

stoichiometry N [1]: 4
Molecule: DNMT3A^R882H/N879A protein (as used for size-exclusion chromatography) (domain or fragment)

B1: MBP-tagged DNMT3A MTase domain R676K (domain or fragment, human, UniProt Q9Y6K1 628-912, looked up)
chain: AEKRKPIRVLSLFDGIATGLLVLKDLGIQVDRYIASEVCEDSITVGMVKHQGKIMYVGDVRSVTQKHIQEWGPFDLVIGGSPCNDLSIVNPARKGLYEGTGRLFFEFYRLLHDARPKEGDDRPFFWLFENVVAMGVSDKRDISRFLESNPVMIDAKEVSAAHRARYFWGNLPGMNRPLASTVNDKLELQECLEHGRIAKFSKVRTITTRSNSIKQGKDQHFPVFMNEKEDILWCTEMERVFGFPVHYTDVSNMSRLARQRLLGRSWSVPVIRHLFAPLKEYFACV
notes: human DNMT3A MTase domain, residues 628-912; source: E. coli BL21(DE3) RIL, purified; not shown: MBP, N-terminal, kept
binding result [2]: binds

B2: MBP-tagged DNMT3A MTase domain M674T/R676K (domain or fragment, human, UniProt Q9Y6K1 628-912, looked up)
chain: B1 chain with M47T
notes: as for B1
binding result [2]: binds

B3: DNMT3A^R882H/N879A (crystallised form) (domain or fragment, human)
chain: B1 chain with K49R, N252A, R255H
notes: human DNMT3A; the abstract speaks of crystal structures of the methyltransferase domain; The crystallisation methods name only R882H/R676K and R882C/R676K as mutants; probably residues 628-912 like the others; also called DNMT3A^N879A/R882H; N879A/R882H-mutated DNMT3A; source: E. coli BL21(DE3) RIL, purified
stoichiometry N [3]: 4

Reference: paper PMC11006857, “Structure-guided functional suppression of AML-associated DNMT3A hotspot mutations” (Nature Communications, 2024)
